# Results as given in patent publication US7847064B2, “Methods and compositions for regulating gene expression in plant cells” (Donald Danforth Plant Science Center, priority 2004, dated 2010).
# B1: RF2a-3Δ: RF2a mutant, glutamine-rich, proline-rich and acidic domains removed, SEQ ID NO:72 (protein)
# chain: MSSSAAAHGARPKHQHSLSMDESMSIKAEELVGASPGTEGMSSAEAKKAVSAVKLAELALVDPKRAKRIWANRQSAARSKERKMRYIAELERKVQTLQTEATTLSAQLALLQRDTSGLTTENSELKLRLQTMEQQVHLQDALNDTLKSEVQRLKVATGQMANGGGMMMNFGGMPHQ
# modifications: This sequence was artificially derived and/or created by the inventors.
# B2: RF2a-ΔPΔQ: RF2a mutant, proline- and glutamine-rich domains removed, SEQ ID NO:71 (protein)
# chain: MGHRRAHSEILSLPEDLDLCAAGGGDGPSLSDENDEELFSMFLDVEKLNSTCGASSEAEAESSSAAAHGARPKHQHSLSMDESMSIKAEELVGASPGTEGMSSAEAKKAVSAVKLAELALVDPKRAKRIWANRQSAARSKERKMRYIAELERKVQTLQTEATTLSAQLALLQRDTSGLTTENSELKLRLQTMEQQVHLQDALNDTLKSEVQRLKVATGQMANGGGMMMNFGGMPHQ
# modifications: This sequence was artificially derived and/or created by the inventors.
# B3: RF2a-ΔPΔA: RF2a mutant, proline-rich and acidic domains removed, SEQ ID NO:70 (protein)
# chain: MSSSAAAHGARPKHQHSLSMDESMSIKAEELVGASPGTEGMSSAEAKKAVSAVKLAELALVDPKRAKRIWANRQSAARSKERKMRYIAELERKVQTLQTEATTLSAQLALLQRDTSGLTTENSELKLRLQTMEQQVHLQDALNDTLKSEVQRLKVATGQMANGGGMMMNFGGMPHQFGGNQQMFQNNQAMQSMLAAHQLQQLQLHPQAQQQQVLHPQHQQQQPLHPLQAQQLQQAARDLKMKSPMGGQSQWGDGKSGSSGN
# modifications: This sequence was artificially derived and/or created by the inventors.
# Legend:
# Box IIm1 element = assay: Electrophoretic mobility shift assay; format: binding; conditions: 100 ng purified protein, 32P-labeled Box IIm1 DNA probe
# Method: The purified mutant proteins were then analyzed by SDS-PAGE to confirm that each protein was its expected size (FIG. 16(B)). To confirm that each of the mutant proteins bind to the DNA target, i.e., the Box II element and/or its operational derivatives, gel mobility shift assays were carried out with the purified recombinant proteins (FIG. 16(C)). The electrophoretic mobility shift assays were carried out essentially as described in Yin and Beachy (1995). 100 ng of proteins purified from the transformed E. coli were incubated with ^32P-labeled Box IIm1 DNA probe followed by electrophoresis in a 5% acrylamide gel (Yin et al., 1997) (FIG. 16(C)).
# pBII-48Ca::GUS = assay: Transactivation of pBII-48Ca::GUS by RF2a and RF2a mutants in BY-2 protoplasts; format: cell-based, tobacco; conditions: co-transfected with pBII-48Ca::GUS, 24 hours after electroporation, normalized with GFP
# Method: The relative activity of RF2a and the RF2a mutants (described in Example 8) was then measured. First, a chimeric promoter was developed with a single copy of the Box II element fused to the 5′ end of a minimal CaMV 35S promoter comprising nucleotides −48 to +8 (SEQ ID NO:66). The chimeric promoter was ligated to the uidA coding sequence to create the reporter pBII-48Ca::GUS.
# To analyze the function of the several domains of RF2a, effectors were created by inserting coding sequences of RF2a or the mutants of RF2a (described in Example 8) downstream of the enhanced CaMV 35S promoter in the pMON999 vector (a gift from Monsanto Company, St. Louis, Mo.). The resultant constructs, p35S::RF2a, p35S::RF2a-ΔP, p35S::RF2a-ΔQ, p35S::RF2a-ΔPΔA, p35S::RF2a-ΔPΔQ and p35S::RF2a-3Δ, were co-transfected into BY-2 protoplasts with pBII-48Ca::GUS (FIG. 17(A)). Plasmid pCat-GFP, in which the GFP gene was driven by CaMV 35S promoter, was co-introduced to serve as an internal control. The following describes, in greater detail, the construction of these vectors and the methods employed in transfecting the same into BY-2 protoplasts.
# Plasmids for protoplast transfection—The coding sequences for mutants of RF2a were released from pET28a-derived plasmids and cloned into the plant expression vector pMON999 (a gift from Monsanto Company, St. Louis, Mo.) to place each gene downstream of an enhanced CaMV 35S promoter, followed by a nopaline synthase terminator sequence. The resulting effector constructs were named p35S::RF2a, p35S::RF2a-ΔP, p35S::RF2a-ΔQ, p35S::RF2a-ΔPΔA, p35S::RF2a-ΔPΔQ and p35S::RF2a-3Δ. The reporter gene construct, pBII-48Ca::GUS, was built using PCR to introduce the Box II element into a minimal CaMV 35S promoter comprising nucleotides −48 to +8 with primers BII-48Ca 5′ (SEQ ID NO:53) (which contained the Box II element) and GUS 3′ (SEQ ID NO:36) using a p35S:GUS plasmid as template. The PCR product was restricted with HindIII and NcoI, and the resulting fragment was inserted into p35S::GUS to replace the original 35S promoter.
# Transfection of tobacco BY-2 protoplasts—The protoplasts were isolated from tobacco cell line BY-2 as described by Watanabe et al. (1987). Approximately one million protoplasts were transfected by electroporation with 20 μg of effector construct DNA, 15 μg of herring sperm DNA, 2.5 μg of reporter gene construct DNA, and 15 μg of pCat-GFP DNA. In samples with reporter gene alone, the total amount of DNA was adjusted by adding 20 μg of herring sperm carrier DNA. The electroporation parameters used were 300 V and 250 microfarads with the Bio-Rad electroporation system (Bio-Rad Laboratories, Hercules, Calif.). Protoplast samples were cultured in Murashige and Skoog medium with 0.4 M mannitol, pH 5.8, at 28° C. The protoplasts were collected 24 hours after electroporation.
# [1] = test system: Nicotiana tabacum cv. Xanthi NN; assay: Phenotype of transgenic tobacco plants overexpressing RF2a or RF2a mutants; format: in vivo; conditions: for phenotype of transgenic tobacco plants: CaMV 35S promoter driven, T1 generation, greenhouse; for cross-sections of the stem of transgenic plants: two-month old tobacco, toluidine blue O
# Excerpt: (Yin et al., 1997; Petruccelli et al., 2001). […] Fifteen or more independent transgenic tobacco lines were developed with the constructs described below through Agrobacterium-mediated transformation.
# Plasmids for Agrobacterium-mediated transformation—The fusion genes described above relating to the plant expression constructs comprising RF2a deletion mutants were released from pMON999-derived plasmids using NotI (blunted) and cloned into the binary vector pGA-E::GUS (Petruccelli et al., 2001) using the blunt HindIII site (downstream of a CaMV 35S promoter sequence). The final plasmids were named pGA-E::GUS/P-35S::ΔP, pGA-E::GUS/P-35S::ΔQ, pGA-E::GUS/P-35S::ΔPΔA and pGA-E::GUS/P-35S::ΔPΔQ. A plasmid encoding full-length RF2a, p35S::RF2a, was also constructed using the methods described herein.
# Tobacco transformation—the plasmids described above were introduced into Agrobacterium tumefaciens strain LBA4404 and used for tobacco transformation. Leaf discs from Nicotiana tabacum cv. Xanthi NN were transformed with the various plasmids following the protocol of Horsch et al. (1988). At least 15 independent transgenic lines were produced with each gene construct. Transgenic plants were self-fertilized, and T1 seeds were collected. The T1 seeds were germinated on Murashige and Skoog medium (Murashige and Skoog, 1962) with kanamycin (100 mg/L) selection, and Kan^r seedlings were grown in a greenhouse for observation.
# The phenotype caused by 35S::RF2a-ΔPΔA was similar to, but less severe than, the phenotype caused by 35S::RF2a-3Δ. […] (FIG. 19(C)).
Molecule,binding in gel mobility shift assay (Box IIm1 element),activation function (relative GUS activity) (pBII-48Ca::GUS),phenotype of transgenic tobacco plants [1],cross-sections of the stem of transgenic plants [1],phenotype of transgenic tobacco plants ([1]; listed as 35S::RF2a-ΔPΔA),"independent transgenic lines with stunting, curved leaves and delayed flowering ([1]; T1 generation tobacco)",internodal elongation of transgenic plants ([1]; transgenic tobacco)
B1,bind to the Box IIm1 element,dropped to near basal level,severe stunting phenotype,xylem of stunted plants was not uniformly lignified and that phloem development was altered,–,–,–
B2,bind to the Box IIm1 element,greater than that of full-length RF2a,did not exhibit abnormal phenotypes,–,–,–,–
B3,bind to the Box IIm1 element,dropped to near basal level,severe stunting phenotype,xylem of stunted plants was not uniformly lignified and that phloem development was altered,mild to severe stunting with curved leaves and substantial delay in flowering times,11 of 15,strongly repressed
